Key:
[1] = Toxicology studies in primates; type: in vivo; settings: Phase I and primate toxicology data taken together
From the text: (§1) In the absence of more accurate TI data, this value is used in the example. LY203638 is classified as a cardiovascular agent (since there are no prior data for hematologic agents and it is not antimicrobial). The limitations in acquiring appropriate data for LY203638 underscores the requirement to have unfettered access to the NCE's data in order to optimize Pharminator's predictive accuracy.

[2] = Phase I studies (Clinical Investigator's Brochure); type: in vivo, humans; settings: from Phase I doses ranging from 12-48 μg/kg/hour (48/12)
From the text: as §1

[3] = primates; cited from earlier work

## Recombinant human activated protein C [LY203638]
[1]
  therapeutic index (TI): approximately 4
[2]
  therapeutic index (TI): at least 4
[3]
  dose at which toxic effects observed: 8 mg/m^2/hour
  no-observed-adverse-effect level: 2 mg/m^2/hour

Source: US20050021237A1, “Method and apparatus for evaluating new chemical entities” (priority 2003, published 2005)
